Measured values taken from article PMC11417369, “DNA sequence and chromatin differentiate sequence-specific transcription factor binding in the human malaria parasite Plasmodium falciparum”.

T1: HDP1 homeodomain-like (Plasmodium falciparum, UniProt Q8IKH4 2990-3078)
T1 sequence: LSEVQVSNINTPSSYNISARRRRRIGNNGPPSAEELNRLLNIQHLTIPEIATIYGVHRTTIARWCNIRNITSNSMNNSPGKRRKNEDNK


Biological target: T1, HDP1 homeodomain-like
Assay: gcPBM; about 25 ug protein; PBS, 1% milk, 0.2 mg/ml BSA, salmon testes DNA, 0.03% Triton X-100
Conditions: tags: N-terminal GST (pGEX-4T-1), kept; chain copies: 2; label: surface-attached array probe

Row | Binder | binding signal
1 | GTGCAC_site9886 (dsDNA) DNA 1: ATTTATTTATATTTAGTGCAATACTATTTTTAAATA DNA 2: TATTTAAAAATAGTATTGCACTAAATATAAATAAAT | 9.95 ln median PBM intensity, better of two orientations
2 | GTGCAC_site9469 (dsDNA) DNA 1: ACAAAAAAAAACGTGGTGCATTAATAATATTGTATA DNA 2: TATACAATATTATTAATGCACCACGTTTTTTTTTGT | 9.75 ln median PBM intensity, better of two orientations
3 | GTGCAC_site10546 (dsDNA) DNA 1: ATGAAATATTTATTTGTGCACTTAATTTGTTGGAAA DNA 2: TTTCCAACAAATTAAGTGCACAAATAAATATTTCAT | 9.86 ln median PBM intensity, better of two orientations
4 | GTGCAC_site9492 (dsDNA) DNA 1: GTCAACAAGAATTAAGTGCATAATTTTTTATTAAAT DNA 2: ATTTAATAAAAAATTATGCACTTAATTCTTGTTGAC | 9.67 ln median PBM intensity, better of two orientations
5 | GTGCAC_site9435 (dsDNA) DNA 1: ATATTTTGTTTTATAGTGCACATGGGCATATATTAA DNA 2: TTAATATATGCCCATGTGCACTATAAAACAAAATAT | 9.71 ln median PBM intensity, better of two orientations
6 | GTGCAC_site9646 (dsDNA) DNA 1: TGTATATATATCTCAGTGCATTGCAAATTAAAAATT DNA 2: AATTTTTAATTTGCAATGCACTGAGATATATATACA | 9.68 ln median PBM intensity, better of two orientations
7 | GTGCAC_site10319 (dsDNA) DNA 1: TCATTTTAAATATGTGTGCACGTTATAATTTACACA DNA 2: TGTGTAAATTATAACGTGCACACATATTTAAAATGA | 9.66 ln median PBM intensity, better of two orientations
8 | GTGCAC_site10156 (dsDNA) DNA 1: ACCATATAAAGTTAGGTGCATTTGTATGTATCTTAC DNA 2: GTAAGATACATACAAATGCACCTAACTTTATATGGT | 9.55 ln median PBM intensity, better of two orientations
9 | GTGCAC_site10318 (dsDNA) DNA 1: ATATATATATATATAGTGCAAATATCTTCTTTATAA DNA 2: TTATAAAGAAGATATTTGCACTATATATATATATAT | 9.8 ln median PBM intensity, better of two orientations
10 | GTGCAC_site9948 (dsDNA) DNA 1: CTTAAATTAATTTGGGTGCATATATTTGTACACATT DNA 2: AATGTGTACAAATATATGCACCCAAATTAATTTAAG | 9.77 ln median PBM intensity, better of two orientations
11 | GTGCAC_site10676 (dsDNA) DNA 1: TTTTGTTATTTTTTAGTGCATATAAAGGTTGTTAAG DNA 2: CTTAACAACCTTTATATGCACTAAAAAATAACAAAA | 9.65 ln median PBM intensity, better of two orientations
12 | GTGCAC_site10104 (dsDNA) DNA 1: CTTATAAGAATACTAGTGCACATAATTTAACGAAAA DNA 2: TTTTCGTTAAATTATGTGCACTAGTATTCTTATAAG | 10 ln median PBM intensity, better of two orientations
13 | GTGCAC_site9634 (dsDNA) DNA 1: AAATTGAGACAACAGGTGCATATAAATATACAGTGT DNA 2: ACACTGTATATTTATATGCACCTGTTGTCTCAATTT | 9.49 ln median PBM intensity, better of two orientations
14 | GTGCAC_site10231 (dsDNA) DNA 1: TTCCAAGAAATAATAGTGCATTATTCATTTTAATAA DNA 2: TTATTAAAATGAATAATGCACTATTATTTCTTGGAA | 9.61 ln median PBM intensity, better of two orientations
15 | GTGCAC_site10425 (dsDNA) DNA 1: CATGAGGTATAAAAGGTGCAAATTAATGAGAACATT DNA 2: AATGTTCTCATTAATTTGCACCTTTTATACCTCATG | 9.91 ln median PBM intensity, better of two orientations
16 | GTGCAC_site9715 (dsDNA) DNA 1: TTTTTTAAATTGGTAGTGCAATATGATTGAACAAAA DNA 2: TTTTGTTCAATCATATTGCACTACCAATTTAAAAAA | 9.52 ln median PBM intensity, better of two orientations
17 | GTGCAC_site9397 (dsDNA) DNA 1: TGTGTTAGCAAAAAAGTGCACAGGGAAAAAAAAATA DNA 2: TATTTTTTTTTCCCTGTGCACTTTTTTGCTAACACA | 9.59 ln median PBM intensity, better of two orientations
18 | GTGCAC_site9631 (dsDNA) DNA 1: AAAAATAATCATTAGGTGCAAAAAATATATATATAT DNA 2: ATATATATATATTTTTTGCACCTAATGATTATTTTT | 9.83 ln median PBM intensity, better of two orientations
